Test [1] has as its target T1, human CCR8 (human, UniProt P51685 1-355).
T1 construct: Transiently expressed on HEK 293T cells, or endogenous on HuT78/HUT78 cells and primary human regulatory T cells; also called hCCR8; human C-C chemokine receptor type 8
Put plainly: KinExA, HUT78 cells. How it is done:
The cells were counted using a hemocytometer. The HUT78 cells were titrated and incubated with two different constant antibody concentrations, one at 48 pM and the other at 2 nM, in HUT media (RPMI 1640, 10% FBS, 10 mM HEPES, 2 mM L-Glut, 1 mM Sod. Pyr, 0.1 mM NEAA, 50 uM 2-ME) with 0.05% Sodium Azide. For the high [Ab] equilibrium set, HUT78 cells were titrated from 62.5 million per milliliter concentration 1:2 for 10 points in eppendorf tubes and equilibrated with 2 nM antibody in a total volume of 400 μl. For the low [Ab] equilibrium set, HUT78 cells were titrated from 3.89 million per milliliter concentration, 1:2 for 10 points in 50 ml Fulcon tubes and equilibrated with 48 pM antibody in a total volume of 15.5 mL.
For each equilibrium sample the free [Ab] was detected by running the equilibrium samples through the coated beads followed by a quick wash with the running buffer (1×PBS pH7.4+1% BSA+0.05% Sodium Azide). The secondary detection antibody (goat anti-huIgG (H+L) Alexa 647) was run through the flow cell at 680 ng/ml and 500 μL per run. The KinExA voltage output signal was used in KinExA software to calculate the Kd. […]
Cells in media were serially diluted and incubated with 48 pM or 2 nM active binding site concentration of antibody in media in the presence of 0.05% NaN3, and allowed to equilibrate. The free mAb left in the supernatant was measured as described above. […]

Test [2] concerns the target T2, human CCR4 (human, UniProt P51679 1-360).
T2 construct: Transiently expressed on HEK293T; also called hCCR4
T2 sequence: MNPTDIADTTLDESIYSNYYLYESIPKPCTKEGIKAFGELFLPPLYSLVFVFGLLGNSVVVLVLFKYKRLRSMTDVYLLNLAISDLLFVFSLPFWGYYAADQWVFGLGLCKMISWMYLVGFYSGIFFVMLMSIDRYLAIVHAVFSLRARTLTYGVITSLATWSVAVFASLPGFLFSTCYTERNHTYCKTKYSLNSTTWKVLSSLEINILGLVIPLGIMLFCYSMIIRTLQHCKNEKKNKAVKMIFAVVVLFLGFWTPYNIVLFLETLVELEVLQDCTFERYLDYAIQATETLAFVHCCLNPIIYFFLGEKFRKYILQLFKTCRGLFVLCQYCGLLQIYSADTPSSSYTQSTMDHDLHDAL
The test is described as follows: flow cytometry, HEK293T transfectants. The text has this:
(§1) Transfected cells were used to assess an antibody's binding specificity using flow cytometry on host Human Embryonic Kidney (HEK) 293T cells. Proteins were expressed on HEK 293T cells by transfection using human CCR8 (SEQ ID NO: 21), human CCR8 with an A27G point mutation (SEQ ID NO: 23), murine CCR8 (SEQ ID NO: 24), rat CCR8 (SEQ ID NO: 25), human CCR4 (SEQ ID NO: 26), or control expression vectors, Gibco™ Opti-MEM® media (Gibco), and 293Fectin™ reagent (Invitrogen) according to the manufacturer's instructions. Human T-cell lymphoma (HuT78) cell lines were also used to determine specificity to endogenously expressed CCR8.
Transfected HEK293T cells (24 hours after transfection) or HuT78 cells were resuspended in FACS buffer (PBS+2% Fetal Bovine Serum) and added to a 96-well plate. […]
Alexa Fluor 647 goat anti-human or rat IgG (Fcγ fragment specific) secondary antibodies (Jackson ImmunoResearch) made up in FACS buffer at 5.0 μg/mL were added to each well, and cells were resuspended and incubated for 15 minutes at 4° C. […] Samples were resuspended in FACS buffer and read on either IntelliCyt® iQue or BD Accuri™ Flow Cytometer with an Intellicyt HyperCyt autosampler.

In test [3] the target is T3, human CCR8 with an A27G point mutation (human, UniProt P51685 1-355).
T3 construct: Transiently expressed on HEK293T; also called Human CCR8 [A27G]; humanCCR8[A27G]
T3 sequence (P51685 whole entry A27G): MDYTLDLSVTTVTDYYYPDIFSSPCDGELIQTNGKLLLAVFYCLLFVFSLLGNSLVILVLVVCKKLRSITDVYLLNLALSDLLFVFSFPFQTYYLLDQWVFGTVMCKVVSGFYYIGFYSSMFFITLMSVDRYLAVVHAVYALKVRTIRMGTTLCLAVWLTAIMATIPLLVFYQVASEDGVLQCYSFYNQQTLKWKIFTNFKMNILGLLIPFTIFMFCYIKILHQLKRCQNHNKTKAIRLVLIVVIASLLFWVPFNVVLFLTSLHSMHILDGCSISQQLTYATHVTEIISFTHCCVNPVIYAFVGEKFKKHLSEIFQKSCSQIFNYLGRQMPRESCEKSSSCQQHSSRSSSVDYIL
Put plainly: flow cytometry, HEK293T transfectants, supernatant 5 ug/mL.
Text: as §1
(§2) Transfected HEK293T cells (24 hours after transfection) or HuT78 cells were resuspended in FACS buffer (PBS+2% Fetal Bovine Serum) and added to a 96-well plate. Hybridoma supernatant samples containing control antibodies 433H (BD Biosciences) or L263G8 (BioLegend), Antibody 1 IgG2, or Antibody 2 IgG2 were added at a final concentration of 5.0 μg/mL, cells were resuspended and incubated for 1 hour at 4° C. Plates were washed twice with FACS buffer, centrifuged to pellet the cells, and supernatant was removed and resuspended in FACS buffer to remove unbound antibodies.
(§3) Alexa Fluor 647 goat anti-human or rat IgG (Fcγ fragment specific) secondary antibodies (Jackson ImmunoResearch) made up in FACS buffer at 5.0 μg/mL were added to each well, and cells were resuspended and incubated for 15 minutes at 4° C. Plates were washed twice with FACS buffer, centrifuged to pellet the cells, and supernatant was removed and resuspended in FACS buffer to remove unbound secondary antibodies. Samples were resuspended in FACS buffer and read on either IntelliCyt® iQue or BD Accuri™ Flow Cytometer with an Intellicyt HyperCyt autosampler.

The target of test [4] is T4, murine CCR8 (murine, UniProt P56484 1-353).
T4 construct: Transiently expressed on HEK293T; also called Mouse CCR8; mCCR8
T4 sequence: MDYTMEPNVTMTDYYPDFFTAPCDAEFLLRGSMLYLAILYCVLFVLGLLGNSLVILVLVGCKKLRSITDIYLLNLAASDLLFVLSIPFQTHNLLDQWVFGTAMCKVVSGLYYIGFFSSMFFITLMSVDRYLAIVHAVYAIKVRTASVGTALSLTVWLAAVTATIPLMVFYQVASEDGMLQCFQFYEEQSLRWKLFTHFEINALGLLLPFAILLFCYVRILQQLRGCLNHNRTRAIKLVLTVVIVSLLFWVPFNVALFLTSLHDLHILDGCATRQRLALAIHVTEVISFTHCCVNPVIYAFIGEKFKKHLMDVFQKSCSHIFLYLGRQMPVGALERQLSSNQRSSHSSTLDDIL
Described as above.
Text: as §1, §2, §3

Test [5] addresses T5, rat CCR8 (rat, UniProt P56484 1-353 (mouse entry)).
T5 construct: Transiently expressed on HEK293T
T5 chain: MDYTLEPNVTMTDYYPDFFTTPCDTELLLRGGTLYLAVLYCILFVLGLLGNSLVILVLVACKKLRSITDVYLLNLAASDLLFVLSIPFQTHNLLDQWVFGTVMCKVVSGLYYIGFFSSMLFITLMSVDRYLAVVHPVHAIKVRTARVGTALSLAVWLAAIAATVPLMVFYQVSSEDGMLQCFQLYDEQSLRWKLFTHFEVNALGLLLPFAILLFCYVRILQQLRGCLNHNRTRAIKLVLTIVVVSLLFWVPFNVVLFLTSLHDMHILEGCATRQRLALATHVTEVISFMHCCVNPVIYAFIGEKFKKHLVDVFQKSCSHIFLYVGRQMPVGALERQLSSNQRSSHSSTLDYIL
The description is as above.
Text: as §1, §2, §3

Some results are limits rather than exact numbers.

T1 sequence (P51685 whole entry): as the sequence (P51685 whole entry A27G) above, with G27A counted along it

B1: Antibody 2 IgG2 (antibody, V domains shown)
VH: QVQLVESGGGVVQPGRSLRLSCAASGFTFSNYGMHWVRQAPGKGLEWVAVISYDGSNKFYADSVKGRFTISRDNSKKTLYLQMSSLRVEDTAVYYCARAGGIGRFDYWGQGTLVTVSS
VL: DFVMTQTPLSLSVTPGQPASISCKYSQSLLHSDGKTYLFWYLQKPGQPPHLLIYEVSNRFSGVPDRFSGSGSGTDFTLKISRVEAEDVGLYYCMQTLKLPLTFGGGTKVEINR
notes: IgG2; tested as hybridoma supernatant
For B1, the dissociation constant (Kd) in test [1] was over 5 nM. The binding result in test [2] is reported as “no binding (tested: 5.0 ug/mL)”. Also, the “binding by FACS (read-out not named)” value is 24200 in test [3], 3600 in test [4] and 11000 in test [5].

B2: Antibody 1 IgG2 (antibody)
heavy: EVQLVESGGGLVKPGGSLRLSCAASGFTFSNARMGWVRQAPGKGLEWVGRIKSKTEGGTRDYAAPVKGRFTISRDDSKNTLYLQMNSLKTEDTAVYYCTSYSGVWGQGTMVTVSSASTKGPSVFPLAPCSRSTSESTAALGCLVKDYFPEPVTVSWNSGALTSGVHTFPAVLQSSGLYSLSSVVTVPSSNFGTQTYTCNVDHKPSNTKVDKTVERKCCVECPPCPAPPVAGPSVFLFPPKPKDTLMISRTPEVTCVVVDVSHEDPEVQFNWYVDGVEVHNAKTKPREEQFNSTFRVVSVLTVVHQDWLNGKEYKCKVSNKGLPAPIEKTISKTKGQPREPQVYTLPPSREEMTKNQVSLTCLVKGFYPSDIAVEWESNGQPENNYKTTPPMLDSDGSFFLYSKLTVDKSRWQQGNVFSCSVMHEALHNHYTQKSLSLSPGK
light: not shown
notes: as for B1
With B2, the Kd in test [1] was 0.216 nM. In test [2], the binding result was “no binding (tested: 5.0 ug/mL)”. Moreover, the “binding by FACS (read-out not named)” value in test [3] came out at 36900; in test [4], 24700; in test [5], 105000.

The values are drawn from patent US20250171549A1 (Amgen, published 2025).
